One substance from paper PMC12045048 can be followed below.

The experiment concerns the target AMBRA1 (activating molecule in beclin-1-regulated autophagy), endogenous in MDA-MB-231 cells (UniProt Q9C0C7). The experiment in a line: anti-FLAG co-immunoprecipitation with proteomics (spectral counts). As to conditions: parent: 0.
Sequence of UniProt Q9C0C7 (Q9C0C7 whole entry): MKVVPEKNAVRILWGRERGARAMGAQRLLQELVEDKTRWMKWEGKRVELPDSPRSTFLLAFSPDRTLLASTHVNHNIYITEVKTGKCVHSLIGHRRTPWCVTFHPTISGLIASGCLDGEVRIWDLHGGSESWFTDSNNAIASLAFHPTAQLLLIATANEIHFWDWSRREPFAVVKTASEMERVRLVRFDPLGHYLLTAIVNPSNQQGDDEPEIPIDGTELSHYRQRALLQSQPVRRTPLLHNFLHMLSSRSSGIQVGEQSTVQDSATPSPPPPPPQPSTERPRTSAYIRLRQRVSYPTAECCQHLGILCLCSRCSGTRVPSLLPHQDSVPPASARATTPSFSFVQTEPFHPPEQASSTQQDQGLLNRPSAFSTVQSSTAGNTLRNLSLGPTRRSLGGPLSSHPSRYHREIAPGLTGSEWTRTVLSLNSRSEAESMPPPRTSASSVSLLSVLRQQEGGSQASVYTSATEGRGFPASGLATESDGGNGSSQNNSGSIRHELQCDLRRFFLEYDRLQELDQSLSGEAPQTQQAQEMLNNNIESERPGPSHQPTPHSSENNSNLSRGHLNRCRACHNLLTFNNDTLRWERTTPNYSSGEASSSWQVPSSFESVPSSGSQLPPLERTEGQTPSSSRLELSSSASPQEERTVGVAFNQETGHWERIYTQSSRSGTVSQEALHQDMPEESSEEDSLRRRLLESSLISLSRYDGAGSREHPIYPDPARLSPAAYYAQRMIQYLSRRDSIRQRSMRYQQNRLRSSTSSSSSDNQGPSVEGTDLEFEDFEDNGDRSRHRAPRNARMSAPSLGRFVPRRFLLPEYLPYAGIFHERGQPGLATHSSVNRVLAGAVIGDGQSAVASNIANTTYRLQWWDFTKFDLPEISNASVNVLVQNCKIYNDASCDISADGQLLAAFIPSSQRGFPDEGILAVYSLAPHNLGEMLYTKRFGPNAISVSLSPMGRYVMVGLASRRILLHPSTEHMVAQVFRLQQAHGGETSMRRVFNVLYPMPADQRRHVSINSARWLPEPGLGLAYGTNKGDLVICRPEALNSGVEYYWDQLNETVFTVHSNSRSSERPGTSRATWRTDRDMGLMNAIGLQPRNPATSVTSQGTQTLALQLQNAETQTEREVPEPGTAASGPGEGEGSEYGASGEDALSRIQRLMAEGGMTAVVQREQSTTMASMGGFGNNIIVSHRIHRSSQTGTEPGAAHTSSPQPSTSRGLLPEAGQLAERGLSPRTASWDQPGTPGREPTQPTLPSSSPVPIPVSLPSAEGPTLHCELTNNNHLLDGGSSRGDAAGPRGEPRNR

For the substance “FLAG–Rab40c (wild type) in MDA-MB-231 cells (from UniProt Q96S21) 4A (211-LPLP-216 to 211-AAAA-216)”, the other: Spectral Counts (spectral counts) worked out at 7.
